Test results from patent US20170267972A1 (published 2017).

Tests used:
[1] = biological target: T1, WT1 (modified form of the WT1 peptide) peptide on HLA-A*24:02 (human); assay: killing
T1 peptide: CYTWNQMNL

[2] = biological target: T2, LMP2 (Epstein-Barr virus latent membrane protein 2) peptide on HLA-A*24:02 (human); assay: multimer staining
T2 peptide: IYVLVMLVL

B1: TCR of clone WT1#3-3 (TCR)
alpha TRAV12-1*01 TRAJ9*01 CDR3: CVVRGGGFKTIF
beta TRBV20-1*01 TRBJ2-6*01 CDR3: CSARAGTGGANVLTF
binding result [1]: recognises

B2: TCR of clone LMP2#1 (TCR)
alpha TRAV26-1*01 TRAJ34*01 CDR3: CIVTRFYTDKLIF
beta TRBV14*02 TRBJ2-1*01 CDR3: CASSSPGSRPYNEQFF
binding result [2]: recognises
